PMC2770089

Biological target: Tat translocon (TatABC) in inverted membrane vesicles (E. coli) (UniProt P69428)
Assay: co-sedimentation

Tat translocon (TatABC) in inverted membrane vesicles (E. coli), sequence (P69428 whole entry, chain 1 of 3): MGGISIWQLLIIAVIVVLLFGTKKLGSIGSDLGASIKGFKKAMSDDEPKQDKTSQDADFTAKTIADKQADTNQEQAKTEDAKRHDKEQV
Tat translocon (TatABC) in inverted membrane vesicles (E. coli), sequence (P69425 whole entry, chain 2 of 3, further chain): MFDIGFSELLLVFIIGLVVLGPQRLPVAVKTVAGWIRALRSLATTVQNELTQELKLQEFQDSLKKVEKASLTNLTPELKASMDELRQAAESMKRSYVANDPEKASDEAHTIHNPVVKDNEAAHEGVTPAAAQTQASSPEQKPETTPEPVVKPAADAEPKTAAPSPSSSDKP
Tat translocon (TatABC) in inverted membrane vesicles (E. coli), sequence (P69423 whole entry, chain 3 of 3, further chain): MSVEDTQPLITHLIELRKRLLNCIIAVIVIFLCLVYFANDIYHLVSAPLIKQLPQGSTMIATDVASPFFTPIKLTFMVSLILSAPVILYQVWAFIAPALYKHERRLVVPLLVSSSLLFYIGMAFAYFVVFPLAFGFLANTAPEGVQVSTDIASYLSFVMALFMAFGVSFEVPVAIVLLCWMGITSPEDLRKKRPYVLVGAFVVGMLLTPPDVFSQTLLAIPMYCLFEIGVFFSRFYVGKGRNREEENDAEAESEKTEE

Substance	percent decrease of precursor bound to the Tat machinery from 0.05 to 1 M KCl [%]	percent inhibition of translocon binding by 1 M urea [%]	amount bound to the Tat machinery (8.3 pmol added) [pmol]	amount of precursor added at which translocon binding saturates [pmol]
pre-SufI (from UniProt P26648 28-470) (natural protein)	35	75		
spTorA-GFP			0.5	4
